{"source": "paper doi:10.1101/2024.07.10.602929", "about": "(bioRxiv, 2024)", "binders": {"B1": {"name": "EGFR LIR2 peptide phosphorylated at Y1197 (peptide, UniProt P00533 1190-1210, looked up)", "peptide": "Biotin-STAENAE[pY]LRVAPQSSEFIGA", "notes": "EGFR residues 1190-1210 (LIR2); also called LIR2 pY1197; source: synthetic peptide, bought: CASLO (≥95% purity)"}, "B2": {"name": "PCM1 LIR peptide (pericentriolar material 1 protein residues 1954-1968), N-terminally biotinylated (peptide, UniProt Q15154 1954-1968, looked up)", "peptide": "Biotin-ISQKSDEEDFVKVED", "notes": "Pericentriolar material 1 protein (PCM1), LIR motif, residues 1954-1968; source: synthetic peptide, bought: CASLO (≥95% purity)"}, "B3": {"name": "EGFR LIR1 peptide phosphorylated at Y1092 (peptide, UniProt P00533 1076-1099, looked up)", "peptide": "Biotin-ALTEDSIDDTFLPVPE[pY]INQSVPK", "notes": "EGFR residues 1076-1099 (LIR1); also called phosphorylated (p) EGFR LIR1 variant pY1092; source: synthetic peptide, bought: CASLO (≥95% purity)"}, "B4": {"name": "EGFR LIR2 peptide (EGFR residues 1190–1210), N-terminally biotinylated (peptide, UniProt P00533 1190-1210, looked up)", "peptide": "Biotin-STAENAEYLRVAPQSSEFIGA", "notes": "Epidermal growth factor receptor (EGFR), residues 1190-1210, core LIR YLRV at 1197-1200; source: synthetic peptide, bought: CASLO (≥95% purity)"}, "B5": {"name": "EGFR LIR1 peptide (EGFR residues 1076–1099), N-terminally biotinylated (peptide)", "peptide": "Biotin-ALTEDSIDDTFLPVPEYINQSVPK", "notes": "Epidermal growth factor receptor (EGFR), residues 1076-1099 of the regulatory C-terminal domain, core LIR FLPV at 1086-1089; also called EGFR LIR1_(1076–1099); source: synthetic peptide, bought: CASLO (≥95% purity)"}}, "experiment_in_all_cases": "BLI; Octet Red 96; N-terminally biotinylated peptides immobilised on High Precision Streptavidin (SAX) biosensors; purified hATG8 proteins as analyte in increasing concentrations; steady-state evaluation, one-site binding model; individual measurements unless stated otherwise", "conditions_in_all_cases": "both partners purified", "key": {"[1]": {"target": "T1, GABARAP (γ-aminobutyric acid type A receptor-associated protein) (human, UniProt O95166 1-117)", "T1 construct": "GABARAP, human, full-length (unprocessed) version; For the NMR titrations the same construct was made 15N-labelled in M9 minimal medium; also called 15N-GABARAP; free GABARAP; source: E. coli BL21(DE3), pGEX-4-T2, purified (Glutathione Sepharose 4B, thrombin cleavage, SEC)"}, "[2]": {"target": "T2, GABARAPL2 (human, UniProt P60520 1-117)", "T2 construct": "GABARAPL2, human, full-length (unprocessed) version; source: E. coli BL21(DE3), pGEX-4-T2, purified (Glutathione Sepharose 4B, thrombin cleavage, SEC)"}, "[3]": {"target": "T3, LC3A (human, UniProt Q9H492 1-121)", "T3 construct": "LC3A, human, full-length (unprocessed) version; also called MAP1LC3 (microtubule-associated protein 1 light chain 3) A; source: E. coli BL21(DE3), pGEX-4-T2, purified (Glutathione Sepharose 4B, thrombin cleavage, SEC)"}, "[4]": {"target": "T4, GABARAPL1 (human, UniProt Q9H0R8 1-117)", "T4 construct": "GABARAPL1, human, full-length (unprocessed) version; source: E. coli BL21(DE3), pGEX-4-T2, purified (Glutathione Sepharose 4B, thrombin cleavage, SEC)"}, "[5]": {"target": "T5, GABARAPL1 Y49A/L50A (human, UniProt Q9H0R8 1-117, Y49A | L50A)", "T5 construct": "GABARAPL1, human, full-length (unprocessed) version with Y49A and L50A; everywhere else Y49A/L50A; also called GABARAPL1_(Y49A/L59A); source: E. coli BL21(DE3), pGEX-4-T2, purified (Glutathione Sepharose 4B, thrombin cleavage, SEC)", "T5 sequence (Q9H0R8 whole entry Y49A/L50A)": "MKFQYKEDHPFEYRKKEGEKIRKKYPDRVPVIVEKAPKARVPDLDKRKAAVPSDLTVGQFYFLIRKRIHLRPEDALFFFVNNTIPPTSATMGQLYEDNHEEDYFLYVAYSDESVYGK"}, "[6]": {"target": "T6, GABARAP Y49A/L50A (human, UniProt O95166 1-117, Y49A | L50A)", "T6 construct": "GABARAP, human, full-length (unprocessed) version with Y49A and L50A; source: E. coli BL21(DE3), pGEX-4-T2, purified (Glutathione Sepharose 4B, thrombin cleavage, SEC)", "T6 sequence (O95166 whole entry Y49A/L50A)": "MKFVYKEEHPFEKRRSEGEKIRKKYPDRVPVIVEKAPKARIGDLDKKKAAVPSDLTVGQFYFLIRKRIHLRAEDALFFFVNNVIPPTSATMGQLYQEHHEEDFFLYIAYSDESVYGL"}}, "note": "Where no end group is shown, it is not given here. [ ]: non-standard residue; d: D form. The star is where a group is joined. Biotin = O=C1N[C@H]2[C@H](CS[C@H]2CCCCC(=O)*)N1; pY = N[C@@H](Cc1ccc(OP(=O)(O)O)cc1)C(=O)O"}
{"binder": "B1", "values": [{"measurement": "binding result", "setting": "[1]", "value": "binds"}, {"measurement": "binding result", "setting": "[2]", "value": "binds"}, {"measurement": "binding result", "setting": "[3]", "value": "binds"}, {"measurement": "binding result", "setting": "[4]", "value": "binds"}]}
{"binder": "B2", "values": [{"measurement": "Kd", "setting": "[1]", "value": 4.2, "unit": "µM"}, {"measurement": "Kd", "setting": "[5]", "value": 273, "unit": "µM"}, {"measurement": "Kd", "setting": "[6]", "value": 99.2, "unit": "µM"}]}
{"binder": "B3", "values": [{"measurement": "binding result", "setting": "[2]", "value": "binds"}, {"measurement": "binding result", "setting": "[3]", "value": "binds"}]}
{"binder": "B4", "values": [{"measurement": "binding result", "setting": "[2]", "value": "binds"}, {"measurement": "binding result", "setting": "[3]", "value": "binds"}, {"measurement": "binding result", "setting": "[4]", "value": "binds"}]}
{"binder": "B5", "values": [{"measurement": "Kd", "setting": "[4]", "value": 29.7, "unit": "µM"}]}
